Assay results reported in paper PMC2190711.

What was measured:
Assay in all cases: CD
[1] = test system: hZαADAR1 (Homo sapiens)
[2] = test system: lsZαE3L (lumpy skin disease virus)
[3] = test system: spZαE3L (swinepox virus)

Substance: d(CG)n DNA for CD B-to-Z conversion
- binding signal (% B-to-Z conversion) [1]: 100
- binding signal (% B-to-Z conversion) [2]: 90
- binding signal (% B-to-Z conversion) [3]: 65
